Tests used:
[1] = target: T1, human neonatal Fc receptor (FcRn), recombinant GPI-linked, on NS0 cells (human, UniProt P55899 24-297; P61769 21-119); test: competition flow cytometry, NS0 cells with human FcRn, vs biotinylated HuEP5C7-IgG2M3, FSB pH 6.0
T1 construct: Expressed from vector pDL208 on the surface of NS0 cells; also called human FcRn; HuFcRn; not shown: human c-myc decapeptide flanked by linker peptides, then GPI linkage signal of human decay accelerating factor (vector p)

[2] = target: T1, human neonatal Fc receptor (FcRn), …; test: competition flow cytometry, NS0 cells with human FcRn, vs biotinylated OST577-IgG2M3, FBB pH 6.0
[3] = target: T1, human neonatal Fc receptor (FcRn), …; test: competition flow cytometry, NS0 cells with human FcRn, vs biotinylated HuEP5C7-IgG2M3, FBB pH 6.0
[4] = target: T1, human neonatal Fc receptor (FcRn), …; test: competition flow cytometry, NS0 cells with human FcRn, vs biotinylated OST577-IgG1, FBB pH 6.0
[5] = target: T1, human neonatal Fc receptor (FcRn), …; test: as above; remark: listed apart in the source
[6] = target: T2, rhesus neonatal Fc receptor (FcRn), recombinant GPI-linked, on NS0 cells (rhesus, UniProt H9Z6D2 24-297; Q6V7J5 21-119, GPI-linked at the C-terminus); test: competition flow cytometry, NS0 cells with rhesus FcRn, vs biotinylated OST577-IgG1, FBB pH 6.0
T2 construct: Expressed from vector pDL410 on the surface of NS0 cells; also called rhesus FcRn; RhFcRn; not shown: human c-myc decapeptide flanked by linker peptides, then GPI linkage signal of human decay accelerating factor (vector p)

B1: OST577-IgG2M3 wild-type antibody (antibody)
chain 1: QVQLVESGGGVVQPGRSLRLSCAASGFTFSRYGMHWVRQAPGKGLEWVAVISYDGSNKWYADSVKGRFTISRDNSKNTLFLQMHSLRAADTGVYFCAKDQLYFGSQSPGHYWGQGTLVTVSSASTKGPSVFPLAPCSRSTSESTAALGCLVKDYFPEPVTVSWNSGALTSGVHTFPAVLQSSGLYSLSSVVTVPSSNFGTQTYTCNVDHKPSNTKVDKTVERKCCVECPPCPAPPAAAPSVFLFPPKPKDTLMISRTPEVTCVVVDVSHEDPEVQFNWYVDGVEVHNAKTKPREEQFNSTFRVVSVLTVVHQDWLNGKEYKCKVSNKGLPAPIEKTISKTKGQPREPQVYTLPPSREEMTKNQVSLTCLVKGFYPSDIAVEWESNGQPENNYKTTPPMLDSDGSFFLYSKLTVDKSRWQQGNVFSCSVMHEALHNHYTQKSLSLSPSK
chain 2: SYVLTQPPSVSVAPGQTARITCGGDNIGSKSVNWFQQKPGQAPVLVVYDDNERPSGISERFSGSNSGNTATLTISRVEAGDEADYYCQVWDSSSDHVVFGGGTKLTVLGQPKAAPSVTLFPPSSEELQANKATLVCLISDFYPGAVTVAWKADSSPVKAGVETTTPSKQSNNKYAASSYLSLTPEQWKSHRSYSCQVTHEGSTVEKTVAPTECS
B1 was tested, and the IC50 [1] was 10.7 mg/L, the “Relative Binding” value [1] was 1 ratio (IC50 wild-type / IC50 mutant) and the IC50 [2] was 11.9 mg/L. For the same binder, the “Relative Binding” value [2] was 1 ratio (IC50 wild-type / IC50 mutant), the IC50 [3] was 9.4 mg/L and the “Relative Binding” value [3] was 1 ratio (IC50 wild-type / IC50 mutant).

B2: OST577-IgG1 wild-type antibody (antibody)
chain 1: not shown
chain 2: SYVLTQPPSVSVAPGQTARITCGGDNIGSKSVNWFQQKPGQAPVLVVYDDNERPSGISERFSGSNSGNTATLTISRVEAGDEADYYCQVWDSSSDHVVFGGGTKLTVLGQPKAAPSVTLFPPSSEELQANKATLVCLISDFYPGAVTVAWKADSSPVKAGVETTTPSKQSNNKYAASSYLSLTPEQWKSHRSYSCQVTHEGSTVEKTVAPTECS
With B2 the IC50 [4] was 10.3 mg/L, the “Relative Binding” value [4] was 1 ratio (IC50 wild-type / IC50 mutant) and the IC50 [5] was 13.9 mg/L. For the same binder, the “Relative Binding” value [5] was 1 ratio (IC50 wild-type / IC50 mutant), the IC50 [6] was 8.86 mg/L and the “Relative Binding” value [6] was 1 ratio (IC50 wild-type / IC50 mutant).

Reference: EP1562972B1 (Facet Biotech Corporation, dated 2010)
